According to the supplement of paper PMC10126150:
± gives the standard deviation of the averaged measurements.

Tested on: ATP
Assay: switch fluorescence ratio, 500 uM ATP over buffer (Cy3 cluster intensity, sum of 5 cycles each) (fold (ratio)); higher = stronger signal-on switching upon ATP binding; sequences stand for … in TCGTCGGCAGCGTCAGATGTGTATAAGAGACAGTTTTTTTTTTTTTTTTTTTTTTTTT…TC
Conditions: aptamer strand: ATP DNA aptamer (quencher-CACCTGGGGGAGTATTGCGGAGGAAGG + anchor), 100 nM annealed; ATP concentration: 500 uM
Procedure, shortened: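 Exposure to 500 uM ATP lasted 15 min at 22 °C before imaging, and a selection-buffer image was taken beforehand, for Cy3-labelled switching-strand clusters on a modified Illumina MiSeq flow-cell annealed to 100 nM quencher-labelled ATP aptamer. Five buffer/ATP cycles were run with NaOH stripping and re-annealing between them. The fluorescence ratio per cluster is summed target-cycle over summed buffer-cycle Cy3 intensity, averaged per switch-domain sequence. Clusters outside 100-1000 RFU were excluded.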

## GGGGGGTCCT
  switch fluorescence ratio: 1 ± 0.018

## GGGGGGTCGG
  switch fluorescence ratio: 1 ± 0.024

## GGGGGGTCTG
  switch fluorescence ratio: 1 ± 0.037

## GGGGGGTGAA
  switch fluorescence ratio: 1.02 ± 0.012

## GGGGGGTGAC
  switch fluorescence ratio: 1 ± 0.035

## GGGGGGTGGA
  switch fluorescence ratio: 1.01 ± 0.028

## GGGGGGTGGT
  switch fluorescence ratio: 0.978 ± 0.025

## GGGGGGTTCA
  switch fluorescence ratio: 1.01 ± 0.026

## GGGGGGTTCG
  switch fluorescence ratio: 0.978 ± 0.021

## GGGGGTACTA
  switch fluorescence ratio: 0.96 ± 0.019

## GGGGGTCCTC
  switch fluorescence ratio: 1.001 ± 0.01

## GGGGGTCGTT
  switch fluorescence ratio: 1.02 ± 0.051

## GGGGGTGAAG
  switch fluorescence ratio: 0.971 ± 0.016

## GGGGGTGTGT
  switch fluorescence ratio: 1.01 ± 0.035

## GGGGGTTCGG
  switch fluorescence ratio: 0.992 ± 0.021

## GGGGGTTGTA
  switch fluorescence ratio: 0.978 ± 0.054

## GGGGGTTTGT
  switch fluorescence ratio: 0.983 ± 0.011

## GGGGTAAGAT
  switch fluorescence ratio: 0.963 ± 0.054

## GGGGTACGTG
  switch fluorescence ratio: 1 ± 0.029

## GGGGTACTTG
  switch fluorescence ratio: 1.01 ± 0.02

## GGGGTAGAGG
  switch fluorescence ratio: 0.977 ± 0.015

## GGGGTAGATC
  switch fluorescence ratio: 1.05 ± 0.013

## GGGGTAGGCC
  switch fluorescence ratio: 0.995 ± 0.018

## GGGGTAGGGG
  switch fluorescence ratio: 1.01 ± 0.026

## GGGGTAGTGC
  switch fluorescence ratio: 0.998 ± 0.015

## GGGGTATACC
  switch fluorescence ratio: 0.956 ± 0.021

## GGGGTATAGT
  switch fluorescence ratio: 0.98 ± 0.021

## GGGGTATCGG
  switch fluorescence ratio: 0.9828 ± 0.0085

## GGGGTATTCT
  switch fluorescence ratio: 1.01 ± 0.013

## GGGGTCAGAT
  switch fluorescence ratio: 0.986 ± 0.051

## GGGGTCATGT
  switch fluorescence ratio: 1.03 ± 0.015

## GGGGTCATTG
  switch fluorescence ratio: 0.988 ± 0.023

## GGGGTCGTTG
  switch fluorescence ratio: 0.995 ± 0.017

## GGGGTCTAGT
  switch fluorescence ratio: 1.01 ± 0.026

## GGGGTCTTCC
  switch fluorescence ratio: 1.07 ± 0.041

## GGGGTGAAGG
  switch fluorescence ratio: 1.01 ± 0.025

## GGGGTGAAGT
  switch fluorescence ratio: 1.04 ± 0.017

## GGGGTGACTG
  switch fluorescence ratio: 1.05 ± 0.048

## GGGGTGCAGC
  switch fluorescence ratio: 1.05 ± 0.02

## GGGGTGCAGT
  switch fluorescence ratio: 0.992 ± 0.022

## GGGGTGCCCA
  switch fluorescence ratio: 0.984 ± 0.044

## GGGGTGCCTG
  switch fluorescence ratio: 0.999 ± 0.039

## GGGGTGGAGC
  switch fluorescence ratio: 1.05 ± 0.014

## GGGGTGGATG
  switch fluorescence ratio: 0.997 ± 0.018

## GGGGTGGCAG
  switch fluorescence ratio: 0.975 ± 0.027

## GGGGTGGCGA
  switch fluorescence ratio: 1.01 ± 0.045

## GGGGTGGGCA
  switch fluorescence ratio: 1 ± 0.011

## GGGGTGGGGT
  switch fluorescence ratio: 1 ± 0.052

## GGGGTGTAAG
  switch fluorescence ratio: 0.992 ± 0.02

## GGGGTGTAGT
  switch fluorescence ratio: 0.9854 ± 0.0053

## GGGGTGTCTG
  switch fluorescence ratio: 0.9792 ± 0.0074

## GGGGTGTGGC
  switch fluorescence ratio: 0.977 ± 0.046

## GGGGTGTTAT
  switch fluorescence ratio: 0.955 ± 0.037

## GGGGTGTTTT
  switch fluorescence ratio: 0.999 ± 0.048

## GGGGTTAACG
  switch fluorescence ratio: 0.996 ± 0.031

## GGGGTTAAGA
  switch fluorescence ratio: 1.01 ± 0.08

## GGGGTTAATG
  switch fluorescence ratio: 0.998 ± 0.028

## GGGGTTAATT
  switch fluorescence ratio: 1 ± 0.026

## GGGGTTAGTG
  switch fluorescence ratio: 0.971 ± 0.034

## GGGGTTCATG
  switch fluorescence ratio: 0.9675 ± 0.006

## GGGGTTCGAA
  switch fluorescence ratio: 0.963 ± 0.016

## GGGGTTGATG
  switch fluorescence ratio: 0.965 ± 0.022

## GGGGTTGGTG
  switch fluorescence ratio: 0.989 ± 0.02

## GGGGTTGTTT
  switch fluorescence ratio: 1.03 ± 0.08

## GGGGTTTAAG
  switch fluorescence ratio: 0.969 ± 0.025

## GGGGTTTACG
  switch fluorescence ratio: 1 ± 0.039

## GGGGTTTAGG
  switch fluorescence ratio: 0.989 ± 0.026

## GGGGTTTCAG
  switch fluorescence ratio: 1.02 ± 0.012

## GGGGTTTGCA
  switch fluorescence ratio: 0.978 ± 0.046

## GGGGTTTTGC
  switch fluorescence ratio: 0.985 ± 0.017

## GGGGTTTTTC
  switch fluorescence ratio: 0.9786 ± 0.0085

## GGGTAAAACT
  switch fluorescence ratio: 1.0166 ± 0.00025

## GGGTAAAGTG
  switch fluorescence ratio: 0.9928 ± 0.0032

## GGGTAAATAT
  switch fluorescence ratio: 0.98 ± 0.014

## GGGTAAATGG
  switch fluorescence ratio: 1.02 ± 0.034

## GGGTAAATGT
  switch fluorescence ratio: 0.9908 ± 0.0024

## GGGTAAGGAC
  switch fluorescence ratio: 1.03 ± 0.014

## GGGTAATAAG
  switch fluorescence ratio: 0.993 ± 0.035

## GGGTAATCTT
  switch fluorescence ratio: 0.991 ± 0.028

## GGGTACAGGG
  switch fluorescence ratio: 1 ± 0.02

## GGGTACATTT
  switch fluorescence ratio: 0.987 ± 0.016

## GGGTACGAG
  switch fluorescence ratio: 1.018 ± 0.01

## GGGTACGCAG
  switch fluorescence ratio: 1.01 ± 0.029

## GGGTACGCGA
  switch fluorescence ratio: 1.222 ± 0.0097

## GGGTACGGGG
  switch fluorescence ratio: 1 ± 0.03

## GGGTACTGGT
  switch fluorescence ratio: 1 ± 0.026

## GGGTACTTGT
  switch fluorescence ratio: 0.999 ± 0.022

## GGGTAGGGAT
  switch fluorescence ratio: 1 ± 0.032

## GGGTAGGGCG
  switch fluorescence ratio: 1.03 ± 0.14

## GGGTAGTCCG
  switch fluorescence ratio: 0.9937 ± 0.007

## GGGTAGTTTT
  switch fluorescence ratio: 0.989 ± 0.018

## GGGTATAACA
  switch fluorescence ratio: 1.004 ± 0.0083

## GGGTATAAGG
  switch fluorescence ratio: 0.989 ± 0.026

## GGGTATAGCC
  switch fluorescence ratio: 0.9807 ± 0.0066

## GGGTATCA
  switch fluorescence ratio: 0.954 ± 0.021

## GGGTATCACT
  switch fluorescence ratio: 0.992 ± 0.016

## GGGTATCGTT
  switch fluorescence ratio: 0.965 ± 0.027

## GGGTATGCCC
  switch fluorescence ratio: 0.9949 ± 0.0027

## GGGTATGCGT
  switch fluorescence ratio: 0.975 ± 0.026

## GGGTATGTTT
  switch fluorescence ratio: 0.981 ± 0.03
